Assay results from patent publication US20190248902A1 (published 2019).

T1: human ASGR-1 mutant construct H203 (human, UniProt P07306 1-291)
T1 construct: Arg/Glu scanning: non-arginine residues were changed to arginine; Transiently expressed on CHO-S cells
T1 sequence: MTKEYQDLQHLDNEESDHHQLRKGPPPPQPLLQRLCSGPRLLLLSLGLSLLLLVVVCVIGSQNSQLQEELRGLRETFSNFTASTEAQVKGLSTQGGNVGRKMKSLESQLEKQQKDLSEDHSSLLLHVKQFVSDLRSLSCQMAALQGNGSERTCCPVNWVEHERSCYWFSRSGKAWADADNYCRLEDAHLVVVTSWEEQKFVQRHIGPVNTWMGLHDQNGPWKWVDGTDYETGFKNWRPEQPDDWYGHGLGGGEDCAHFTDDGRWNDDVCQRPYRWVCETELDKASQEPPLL

T2: human ASGR-1 (wild type) (human, UniProt P07306 1-291)
T2 construct: also called wt ASGR1; huASGR-1
T2 sequence: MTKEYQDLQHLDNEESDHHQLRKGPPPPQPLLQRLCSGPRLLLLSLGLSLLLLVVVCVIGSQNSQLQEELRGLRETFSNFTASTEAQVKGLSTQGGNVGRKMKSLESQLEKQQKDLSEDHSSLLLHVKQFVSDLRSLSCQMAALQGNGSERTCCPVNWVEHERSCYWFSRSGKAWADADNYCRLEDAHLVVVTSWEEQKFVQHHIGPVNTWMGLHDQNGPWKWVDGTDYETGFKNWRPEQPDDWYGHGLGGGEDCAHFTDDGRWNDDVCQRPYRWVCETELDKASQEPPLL


Columns and labels:
[1] = target: T1, human ASGR-1 mutant construct H203; experiment: FACS, transfected CHO-S cells, mAb 5 ug/ml
Experimental: (§1) The ability of human ASGR-1-specific, ligand competing antibodies to bind to the mutant hASGR-1 proteins was assessed by FACS as described above.
(§2) Antibodies were tested for binding to the individual mutant and wild type ASGR-1 constructs using normalized antibody concentrations (5 ug/ml). CHO—S cells transiently expressing the appropriate mutated or non-mutated antigen of interest were mixed with antibody sample or controls, incubated for 1 hour at 4° C., and then washed twice. Cells with bound antibody were then incubated with Alexa Fluor® 647 IgG Fc fragment-specific detection antibody and 7-AAD viability stain for 15 minutes at 4° C., washed once and resuspended in FACS buffer. Samples were analyzed using a BD Accuri™ Flow Cytometer and an Intellicyt HyperCyt Autosampler. As a negative control, supernatants and controls were also screened against CHO—S cells transfected with empty parental vector (referred to as mock). […] Because mutant hASGR-1 expression levels varied relative to each other, sample binding data for each construct was normalized for expression by dividing the binding data from an antibody not affected by the mutations (e.g., 65C12) by the binding values of each test antibody on a given mutant construct. Also, because the antibody binding affinities varied amongst the samples, the expression corrected data (above) was further normalized by comparing test antibody binding on each mutant construct to wild type hASGR-1. Identification of specific mutations that affected test antibody binding was performed by an interquartile range (IQR) analysis to determine statistical outliers. A mutation was identified as a “hit” if the calculated values were >3× the IQR (above the 3rd quartile/upper fence) for a given mutant construct. Although IQR analysis was used here to determine signifance and identify hits, one skilled in the art will recognize that a number of methods could be employed in order to normalize the data (eg. using epitope-tagged constructs or other ASGR-1-binding antibodies directed against non-CBD epitopes).

human ASGR-1 (wild type) [2] = target: T2, human ASGR-1 (wild type); experiment: FACS, transfected CHO-S cells, mAb 5 ug/ml
Experimental: as §1, §2

[3] = target: T1, human ASGR-1 mutant construct H203; experiment: FACS ratio: 65C12 geomean / this mAb geomean
Experimental: (§3) Mutant hASGR-1 variants were constructed such that non-arginine residues were changed to arginine and where wild type arginine residues were mutated to glutamic acid. Each mutant hASGR-1 sequence was then cloned into a mammalian expression vector and used to transiently transfect CHOs cells. The ability of human ASGR-1-specific, ligand competing antibodies to bind to the mutant hASGR-1 proteins was assessed by FACS as described above.
(§4) Antibodies were tested for binding to the individual mutant and wild type ASGR-1 constructs using normalized antibody concentrations (5 ug/ml). CHO—S cells transiently expressing the appropriate mutated or non-mutated antigen of interest were mixed with antibody sample or controls, incubated for 1 hour at 4° C., and then washed twice. Cells with bound antibody were then incubated with Alexa Fluor® 647 IgG Fc fragment-specific detection antibody and 7-AAD viability stain for 15 minutes at 4° C., washed once and resuspended in FACS buffer. Samples were analyzed using a BD Accuri™ Flow Cytometer and an Intellicyt HyperCyt Autosampler. As a negative control, supernatants and controls were also screened against CHO—S cells transfected with empty parental vector (referred to as mock). […] Because mutant hASGR-1 expression levels varied relative to each other, sample binding data for each construct was normalized for expression by dividing the binding data from an antibody not affected by the mutations (e.g., 65C12) by the binding values of each test antibody on a given mutant construct. Also, because the antibody binding affinities varied amongst the samples, the expression corrected data (above) was further normalized by comparing test antibody binding on each mutant construct to wild type hASGR-1. Identification of specific mutations that affected test antibody binding was performed by an interquartile range (IQR) analysis to determine statistical outliers. A mutation was identified as a “hit” if the calculated values were >3× the IQR (above the 3rd quartile/upper fence) for a given mutant construct.

human ASGR-1 (wild type) [4] = target: T2, human ASGR-1 (wild type); experiment: FACS ratio: 65C12 geomean / this mAb geomean
Experimental: as §3, §4

[5] = target: T1, human ASGR-1 mutant construct H203; experiment: FACS ratio: H203 normalized value / wt normalized value
Experimental: as §1, §2

Binder	FACS Binding Geomean [1]	FACS Binding Geomean (human ASGR-1 (wild type) [2])	Expression Normalization to mAb 65C12 [3]	Expression Normalization to mAb 65C12 (human ASGR-1 (wild type) [4])	Normalization to wt ASGR1 Binding [5]
56E3 (antibody, V domains shown, mAb) VH: QVQLVQSGAEVKKPGASVKVSCKASGYTFNSYGFSWVRQAPGQGLEWMGWISAYNGNTKEAQKFQGRVTMTTDTSTSTAYMELRSLRADDTAVYYCARHDFWSGYYKGMDVWGQGTTVTVSS VL: not shown	20400	33900	1.26	1.66	0.762
151B9 (antibody, V domains shown, mAb) VH: EVQLLESGGGLVQPGGSLRLSCAASGFTFSSYAMSWVRQAPGKGLEWVSVISGGGSSTYYADSVKGRFTISRDNSKNTLYLQMNSLRAEDTAVYYCAKWRGNPTDYGMDVWGQGTTVTVSS VL: SYELTQPPSVSVSPGQTASIACSGDNLGDKYASWYQQKPGQSPVLVIYQDSKRPSGIPERFSGSNSGNTATLTISGIQAMDEADYYCQAWDSSTVVFGGGTKLTVL	9740	23500	2.65	2.38	1.11
72F5 (antibody, V domains shown, mAb) VH: EVQLLESGGGLVQPGGSLRLSCAASGFTFSSYAMIWVRQAPGKGLEWVSTISGSGGYTYSADSVKGRFTISRDNSKNTLYLQMNSLRAEDTAVYYCARRIAVTGTEWYDPWGQGTLVTVSS VL: DIQMTQSPSSLSASVGDRVIIPCRASQNISSYLNWYQQKPGKAPKLLIYAASSLQSGVPSRFSGSGSGTDFTLTISSLQPEDFATYSCQQTYSTPTFGQGTRLDIN	10500	28000	2.45	2	1.22
147E9 (antibody, V domains shown, mAb) VH: EVQLVESGGGLVQPGGSLRLSCAASGFTFSSYSMNWVRQAPGKGLEWVSSISGRNTTIYYADSVKGRFTISRDNAKNSLYLQMNSLRDEDTAVYYCSRDRGSCWGQGTLVTVSS VL: DIQMTQSPSSLSASVGDRVTITCRASQDINNYLAWFQQKPGKAPKSLIVAASSLQSGVPSKFSGSGSGTDFTLTISSLQPEDFATYYCQQYNSYPLTFGGGTKVEIK	21500	40200	1.2	1.4	0.858
60C12 (antibody, V domains shown, mAb) VH: QVQLVESGGGVVQPGRSLRLSCAASGFTFSSYGMHWVRQAPGKGLEWVAVIWYDGSNKYYVDSVKGRFTISRDNSKNTLYLQMNSLRAEDTAVYYCARRYSRSWTGGMDVWGQGTTVTVSS VL: DIVMTQTPLSLSVTPGQPASISCKSSQSLLHSEGKTYLYWYLQKPGQPPQFLIYEVSNRFSGVPDRFSGSGSGTDFTLKISRVEAEDVGIYYCMQSIKYPLTFGGGTKVEIK	19800	31300	1.3	1.79	0.725
173C11 (antibody, V domains shown, mAb) VH: QVQLVESGGGVVQPGRSLRLSCAASGFTFSSYGIHWVRQAPGKGLEWVALIFYDGSNKYYADSVKGRFTISRDNSKNTLYLHMSSLRAEDTAVYYCARRYSSSWSGGMDVWGQGTTVTVSS VL: DIVMTQTPLSLSVTPGQPASISCKSSQSLLHSEGKTYLYWYLQKPGQPPQLLIYEVSHRFSGVPDRFSGSGSGTDFTLKISRVEAEDVGVYYCMQSIQLLTFGGGTKVEIK	13900	28500	1.86	1.97	0.945
149D11 (antibody, V domains shown, mAb) VH: EVQLLESGGGLVQPGGSLRLSCAASGFTFSSYAMSWVRQAPGKGLEWVSAISGRGGNTFYADSVKGRFTISRDNSKNTLYRQMNSLRAEDTAVYYCAKKDYDYVWGSPYFDYWGQGTLVTVSS VL: DIQMTQSPASVSASVGDRVTITCRASQNISNWLTWYQQKPGKAPKLLIYAASSLQSGVPSRFSGSGSGTDFTLSISSLQPEDFATYYCQQTDSFPFTFGPGTKVDVK	8870	23600	2.91	2.38	1.22
52H2 (antibody, V domains shown, mAb) VH: EVQLLESGGGLVQPGGSLRLSCAASGFTFSRNAMSWVRQAPGMGLEWVSAISGRGGNTFYADSVKGRFTVSRDNSKNTLFLQMNSLRAEDTAVYYCAKNGREQWLDYWGQGTLVTVSS VL: DIQMTQSPSSVSASVGDRVTITCRASQNITNWLAWFQQKPGRAPKLLIYTTSSLQSGVPSRFSGSGSGTDFTLTISSLQPEDFATYCCQQTNSFPWTFGHGTKVEVK	18600	48000	1.38	1.17	1.18
175F4 (antibody, V domains shown, mAb) VH: QVQLQQSGPGLVKPSQTLSLTCAISGDSVSSNSAAWNWIRQSPSRGLEWLGRTYYRSKWYNAYPVSMESRISINPDTSKNQFSLQLNSVTPEDTAVYYCARDKAAGRNDFYYYGMDVWGQGTTVTVSS VL: QSALTQPASVSGSPGQSITISCTGTSSDVGRFNLVSWYQQHPGYAPKLMIYEVSKRPSGVSNRFSGSKSGNTASLTISGLQAEDEADYYCCSYAGSSTYVVFGGGTKLTVL	14800	33600	1.74	1.67	1.04
61A1 (antibody, V domains shown, mAb) VH: QVQLQESGPGLVKPSETLSLTCTVSGGSISSHFWSWIRQPAGKGLEWIGRIYIRGSTNYNPSLKSRVTMSVDTSKNQFSLKLSSVTAADTAVYYCAREGKTGGVSYFDYWGQGTLVTVSS VL: DIQMTQSPSSLSASVGDRVTITCRASQSISSYLNWYQQKPGKAPKLLIYAASSLQSGVPSRFSGSGSGTDFTLTISSLQPEDFAPYYCQQSYNISFTFGPGTKVDIK	20100	40000	1.28	1.4	0.911
